In patent publication US20240139351A1, “TARGETING SYSTEM WITH IMPROVED UPTAKE” (CORETAG IP B.V., priority 2021, published 2024):

Assays:
[1] = Clearance of cyanines in the human body; details: in vivo
Text: (§1) The present targeting molecule is very selective and very specific in binding to necrotic cells. […] For the present invention three specific cyanines are selected, namely 800CW, 800RS, and ZW-800. These molecules are found to have a high affinity towards the intracellular proteins, including tubulin and actin. […] As a result, very low concentrations c.q. amounts of the present system may be used to provide advantageous effects thereof. It is noted that apoptosis specific probes, in contrast to necrosis specific probes will also target healthy tissue as apoptosis is involved in normal tissue turnover. The present cyanine is attached to a second entity, namely a linker, wherein the linker may even be a relatively small molecule, the linker being attached to the present drug uptake improving molecule, wherein the drug uptake improving molecule is selected from aromatic compounds comprising a residue or group selected from amino acid residues, which latter molecule is attached to the chelator, wherein the chelator is typically selected from DOTA and NOTA comprising compounds (DOTA: 1,4,7,10-Tetraazacy-clododecane-1,4,7,10-tetraacetic acid and NOTA: 1,4,7-triazacyclononane-N,N′,N″-tri-acetic acid). Attached to the chelator a further entity may be attached, such as a radionuclide. […]

[2] = tested on: intracellular proteins, including tubulin and actin; assay: Affinity of cyanines towards intracellular proteins; assay type: binding
Text: as §1

NCI-H69 tumor = assay: Biodistribution of 111In-radiolabeled compounds in mice bearing NCI-H69 tumors
Text: CORETAG has evaluated the radiolabeling, in vitro binding, pharmacology in tumor animal model, and PET or SPECT imaging with an overall expertise in targeted radiotherapy and companion imaging diagnostic. The aim of this part is to evaluate the biodistribution of the 4 compounds below and compare it to the biodistribution of DOT-AGA-PEG4-CW800 (prior art).
The injected activity was about 9.0 MBq.
The NCI-H69 cell line used is a human small cell lung cancer carcinoma that was
Tumor cells were grown at 37° C. in a humidified atmosphere (5% CO2, 95% air). The culture medium will be RPMI1640 medium containing 10% fetal calf serum. NCI-H69 tumor cells are growing as a cell suspension. For experimental use, tumor cells were harvested by centrifugation. Cells were counted and viability assessed using a 0.25% try-pan blue exclusion assay.
Thirty-one (31) healthy female SWISS Nude (Crl:NU(Ico)-Foxn1nu) mice, 6-8 weeks old at reception, were obtained from Charles River. The injection volume was 100 μl.
Tumors were induced by subcutaneous injection of 2×10^7 NCI-H69 cells in 200 μL of RPMI 1640 into the right flank of 31 female animals in the axis of the heart. NCI-H69 tumor cell implantation was performed 24 to 72 hours after a whole-body irradiation with a gamma-source (2 Gy, 60 Co, BioMep, France). The day of tumor induction is considered as D0.
All imaging experiments were performed on a 4.7T horizontal magnet (PharmaS-can, Bruker Biospin GmbH, Germany) equipped with an actively shielded gradient system. All the MR images were acquired under ParaVision (PV5.1, Bruker Biospin).

[3] = Aqueous solution concentration; assay type: physicochemical

CC1(C)C(=CC=C2CCCC(C=CC3=[N+](CCC[N+](C)(C)C)c4ccc(S(=O)(=O)O)cc4C3(C)C)=C2Oc2ccc(CCC(=O)O)cc2)N(CCC[N+](C)(C)C)c2ccc(S(=O)(=O)O)cc21 [ZW-800]
clearance in the human body [1]: cleared in the human body specifically well
affinity towards the intracellular proteins [2]: high affinity

DOTAGA-LYS-(PEG4-CW800)2 [component 5]
Uptake in all organs (NCI-H69 tumor; all organs): increased
concentration present (assessment) (NCI-H69 tumor; mouse, in vivo): too high concentration
uptake in tumor (NCI-H69 tumor; tumor): higher uptake

CC1(C)C(/C=C/C2=C(Oc3ccc(S(=O)(=O)O)cc3)C(=C/C=C3/N(CCCCS(=O)(=O)O)c4ccc(S(=O)(=O)[O-])cc4C3(C)C)/CCC2)=[N+](CCCCCC(=O)O)c2ccc(S(=O)(=O)O)cc21 [800CW]
clearance in the human body [1]: cleared in the human body specifically well
affinity towards the intracellular proteins [2]: high affinity

IR800CW-PEG4-NaI-DOTA-GA [component 6]
forms an aqueous solution [3]: > 1 mM
Radioactivity in blood (comparison between components) (NCI-H69 tumor; mouse, in vivo): higher
dosage to all organs tested compared to components 1-4 (NCI-H69 tumor; mouse, in vivo): about twice as high
dosage to the tumor compared to components 1-4 (NCI-H69 tumor; mouse, in vivo): about twice as high
uptake in tumor (NCI-H69 tumor; mouse, in vivo): higher uptake
Remaining radioactivity in whole body after 3 h (NCI-H69 tumor; mouse, in vivo, 3 h): higher
